Experiment: soluble on expression in E. coli; label from the status in PepcDB or PDB records

Row | Sequence | soluble on expression in E. coli
1 | MILKPIGVVKSPFKTQNDAPRQGRFSDAVSEIAIFDEYADGLHKIENLRHIIVLYWMDKASRDKLRVVPPGETEERGVFTTRSPSRPNPIGLCVVEILEVERNRLKVRWLDALDGSPVIDIKKYSPEIDCVNQLEGQQPLEHHHHHH | soluble
2 | MGSDKIHHHHHHMRNAHDILDNIVYDFANATGLGSVAVDLNGKEISPWYNFTSFCQQVRQIAAYHPYCQQCDRCGGFESTKAKQIQCYRCHAGLVDFSIPIFINGNLTGFVSCGQARVAENLPLPKIVENDKNLPTESKLIELYHEVPELSLMKIKSAAQLLNLIIENYLSKEYNLRIVKNVSPVKNQKLETLGRHQATMEMILNHINQNFSDNLNLEQMASKANLSMFYFSRTFKELTGTGFTAYLINKRMTEAHCLLEQTNWSIEKIARSVGYNDVHYFSRLFKKTFNRSPSEFRNHSSGFSM | not soluble
3 | MGSDKIHHHHHHMNHLLKQAKRVASECECGHEHQWIEMDELQLGRNAINYLPEYLHEKGLLHVTIVADANTYAVAGQLVAQLLKGRGIDVENCILKEQGALTLLADEHGLGQLVIGAAKETDVFLAVGAGTIHDLTRIASYKFGKPFIAIPTAPSVDGFTSMGAPVIRDGVKITFQTQAPIALFADLDFLTQAPRSMVAAGFGDMLGKSTSLVDWQVSHMLNDEPFCPAVFHMTKSALTMCMEHADEIAACNEQGIRLLTEALIMSGLAMLIFGHSHPASGAEHHLSHYWEMAFLRSGGTQPLHGAKVGYATMLISALYKNEARKKIETFQGEGSPLVNSIHKHRERLLMLIDTIPESSDIQRLLESVGGAVKSADLALADSLEDEALEKAHKLRERCTLLYCLNEHLKTS | not soluble
4 | MANRKYFGTDGVRGKVGAYPITPDFALKLGWAAGKVLASQGSKMVLIGKDTRISGYMLESALEAGLAAAGLSAAFTGPMPTPAIAYLTRTFRAEAGIVISASHNPYYDNGIKFFSAKGTKLPDEIEEAIEAMLEQPMDCVESAELGKASRINDAAGRYIEFCKGTFPAHLGLEGYKIVVDCANGATYHIAPNVLRELGAEVIEIGTDPNGLNINEKCGATDVTALQAKVVETKADVGLAYDGDGDRIMMVDHLGNKVDGDQILFIIAREALRSGQLKGGVVGTLMSNMSLEIALKMLGVPFLRANVGDRYVLEKMVENDWTLGGENSGHIIIADKNTTGDGIVASLAVLAAMAQHKLSLNELASAVKLFPQVLINVRFAGGENPLESDAVKSVAAEVEKRLEGKGRILLRKSGTEPLIRVMVECQDAELAQQCAEEIAEAVKKIN | not soluble
5 | EIQLQQSGPELVKPGASVKVSCKASGYSFTDYFIYWVKQSHGKSLEWIGDIDPYNGDTSYNQKFRDKATLTVDQSSTTAFMHLNSLTSEDSAVYFCARGLRFWGQGTLVTVSAAKTTPPSVYPLAPGSAAQTNSMVTLGCLVKGYFPEPVTVTWNSGSLSSGVHTFPAVLQSDLYTLSSSVTVPSSTWPSETVTCNVAHPASSTKVDKKIVPRDCG | soluble
6 | MPRKPKRPCSFPGCPELTDGRYCDMHQRQMDAYYNKYERDPQTRKRYDRRWKRIRDRYISEHPLCEECQKYGRLTPAEEVHHIIPLSKGGTNADSNLMSLCKQCHSSITAREGERWARR | not soluble
7 | MERVNGEDIWQDREIRFDVDHKLLRLINGEIQVAKIEHVEDTKGNNGDRGTMRVTNLRLIWHAASMPRINITIGWNAITGVQSKQTTSLVTRNRGISNEAIYVLAKVSATTTKFEFIFTTTNPASHSKLFNTISSISRAYETTKMYRELKMRGVFIREDGTLKILPQETIIEKVNGVWNLSTETGSLGVFVITNIRVVWYAEMNIGYNVSVPYITLYSVRVRESKFGMALVLETTTSSGEYVLGFRVDPAERLQNLLKTVQSLHKAHLLKPIFGVSYVKEIAEKVEPRKDDDEIDIIDNNEDDVEIDDKIRPDAFASYFDGEHTATDEKQLPVLNPELGLAIEPIRNGFTLHDLWNIHVDV | not soluble
8 | MDPTDLSFSPDEINKLIETGLNTVEYFTSQQVTGTSSLGKNTIPPGVTGLLTNAAEAKIQESTNHQKGSVGGGAKPKKPRPKIAIVPADDKTVPGKPIPNPLLGLDSTPSTQTVLDLSGKTLPSGSYKGVKLAKFGKENLMTRFIEEPRENPIATSSPIDFKRGRDTGGFHRREYSIGWVGDEVKVTEWCNPSCSPITAAARRFECTCHQCPVTCSECERDT | soluble
9 | MGSLNGGSPEGVESQDGVDHFRAMIVEFMASKKMQLEFPPSLNSHDRLRVHQIAEEHGLRHDSSGEGKRRFITVSKRAGSHHHHHH | soluble
10 | MGSDKIHHHHHHMSTLDIAEDNKIKNEEFKIWKKSIPSLYQHISSLKPIFGSGVDESPSTLRSIVFTNDSSCNKSKGVLSVPLLYSQGSEIFEVDCIVPLGLHYKKPESISEPLVQPDYTMESQKVEQTVLIPKWEFKGETIAKMIYVDNSEINVKVIALSTNGSLAWFREGVKSPVYTMMEPSTSLSSASSGNQNKPCVDFAISNDSKTLTVTKEKHLDNENATIKLIDNSGKIGEVLRTIPVPGIKNIQEIKFLNNQIFATCSDDGIIRFWGNEIGKKPLWILNDSLDGKTTCFAASPFVDTLFMTGTSGGALKVWDIRAVIALGDADAELNINQGHNKVNELFKVHHFYSEQVSKIEFSSISPMEVVTIGGLGNVYHWNFEPVFAIYNEIHEDFQGIISDELEAESMAFYHTEGCRREIGENNKVNTVAYHKYIEDLVATVDSDGLLTVYKPFTGKVLDGSREVGAAKS | not soluble
11 | GSHSLRYFVTAVSRPGHGKPRYMEVGYVDDTEFVRFDSDAENPRYEPRTPWMEQVEPEYWEGQTQIAKGNEQSSRVDLRTALRYYNQSAGGSHTIQRMRGCEVGSDGRLLRGYQQVAYDGRDYIALNEDLKTWTAADMAALITKHKWEQAGAAERDRAYLEGACVEWLRRYLELGNATLLRTDSPKAHVTHHSRPKDKVTLRCWALGFYPADITLTWQLNGEELTQDMELVETRPAGDGTFQKWASVVVPLGKEQNYTCHVYHEGLPEPLTLRW | soluble
12 | MFDPREKIALFIDGANLYAASKSLGFDIDYRKLLKAFQKRGYLLRAYYYTALIEDQEYSSIRPLIDWLDYNGYKVVTKPAKEFTDSLGRRKIKGNMDIELAIDAMEQSESVDHLVIFSGDGDFTTLVEALQRKGRKVSVVSTMSTQPPMIADDLRRQADHFIDLATLRGEIGREPSERVQRPVEPVADDVEL | not soluble
13 | HEHPTSAGGDGGAGTGAVGTHDGSAAAAAAAAALPSISGARGHAGPEGGHDNDMGGMDASGGGGGGGYGRLPGLAAQSSMASVDGDEASLPPIANLSLGKANMTGSTVGGAAHASTRRSTLNTYYEPGAGGGGGTGGAGGGGGGAGPGPAGYGKVAKAAAVGGAGSVAGGGGVVGGAGVGGGGAVGSGTVGRRQSVGVVVGKYGSVNKQASQGHGGGGPGVAGAAGMAVTGGHAGGGVGGGGGGAVGVGGVGVNKYKANVGKTNSKYISPYSLRQLAG | not soluble
14 | MSVEEAALALWAKSGNPFHPLLAHMLDTAAVALAVLRMEPPRTRALYAEDWGLPEEGALAWAAALVGLHDLGKASPVFQAGWEEGKERVQRAGLPFGELLDWVAHGVFTELFLRRLLKEKGLPERAANDLAAALGAHHGFPANAEEKSRARRHLRTEDPLWKEARRWLLEEVFRRLGAPLPPSQGNGEARPEAVLRVMALASFADWVASDPSLFPYGRDPRRGDYLKEALRLAQEALNRLGWPAFAKAQRREFGELFPYIPKPNALQESVPALLEGACTPVLLLVEAPMGMGKTEAALYAHHLLQAGLGHRGLYVALPTQATANGLFPRVRGFLERLGEGSRLELQLQHGTALLNPHYAGLLERAAPRQVGEEEEGGAVASAWFSARKRAMLAPYGVGTLDQALLGVLRVKHHFVRLWGLMNRVVVLDEVHAYDVYTSGLLQALLRWLRALGSSAVVMTATLPPSRRRALLEAWAGEEVEGQDLGPYPRVVLVGEGVKARSLPPAREVEVALEVLREVDVEPLAQRLKGALPGAVGAIVNTVDRAQDLYRALGEGTPLTLEELARRLGGISGGQAWEEVRQALPERGGEVVGKVLTDGTLVFLLHARFPAEERALRGSVVLALFGKGGPRPPRAILVATQVAEQSLDLDFDLLYTDLAPIDLLFQRSGRLHRHERPRPEEHARPRLLLGVPEDLDFGKPLYWDKVYEDYVLLATWRALSGRDRLRVPGDLEALLEEIYEGENPESFPEGLRERAKKSLKALQERRDREANTARRLSLSELDRLLAYWDEGALVAQERLEDDEEKAETQRLLTRLGDPSVAVVPLFRVGEGLFLDREGRRRAPLKGEVSREEAEALFRRAVRLSRFPLPQELLKEEPPPAWRKSGLLRGLRPLEVGRVFRSGERAFQVELDPELGVVYLPV | soluble
15 | SNAGMKAADFTYVTVHGDNSRMSRLKAQYTMLFFYDPDCSNCRKFEKLFAEIPAFVEMVENGTLRVLAIYPDENREEWATKAVYMPQGWIVGWNKAGDIRTRQLYDIRATPTIYLLDGRKRVILKDTSMEQLIDYLATQAGK | soluble
16 | AVLLLGEVTNGALNRDATAKAVAAVKALGDVTVLCAGASAKAAAEEAAKIAGVAKVLVAEDALYGHRLAEPTAALIVGLAGDYSHIAAPATTDAKNVMPRVAALLDVMVLSDVSAILDADTFERPIYAGNAIQVVKSKDAKKVFTIRTASFDAAGEGGTAPVTETAAAADPGLSSWVADEVAESDRPELTSARRVVSGGRGLGSKESFAIIEELADKLGAAVGASRAAVDSGYAPNDWQVGQTGKVVAPELYVAVGISGAIQHLAGMKDSKVIVAINKDEEAPIFQIADYGLVGDLFSVVPELTGKL | soluble
17 | MKVKEAMNPEIITVSPETRPLEAFEKMYKHGVRRLFVLEDDGKPVGVVSYTDLIGVLGTIKPDSEHPERDLKVRDIMVDEVITISADDNIEDAANLMLRADISGLLVMDDERPVGVITKTDICRLVAAEILVPS | not soluble
18 | MSLSQHIRKLDSDVSERLKSQACTVSLASAVREIVQNSVDAHATTIDVMIDLPNLSFAVYDDGIGLTRSDLNILATQNYTSKIRKMNDLVTMKTYGYRGDALYSISNVSNLFVCSKKKDYNSAWMRKFPSKSVMLSENTILPIDPFWKICPWSRTKSGTVVIVEDMLYNLPVRRRILKEEPPFKTFNTIKADMLQILVMHPMISLNVQYTDKLRINTEVLFRSKNITEGLTKHQQMSQVLRNVFGAIIPPDMLKKVSLKFNEYQIEGIISKMPVGLKDLQFIYINGRRYADSAFQGYVDSLFQAQDFGEKGMSLLKTKSVGKPYRSHPVFILDVRCPQTIDDLLQDPAKKIVKPSHIRTIEPLIVKTIRSFLTFQGYLTEGHHHHHH | not soluble
19 | MKGGCVSQWKAAAGFLFCVMVFASAERPVFTNHFLVELHKGGEDKARQVAAEHGFGVRKLEHHHHHH | not soluble
20 | MGSDKIHHHHHHMLEREGIEISLRTIQRDLNQIAQRFPIESNKAVPQGWRWQSDAPIQSLPHMTSSQAVTFMMVEEHLKHLLPPSLLDEMGPWFDLAKRSLSTQNNVRQWINRVRIVPASQPLIPPVVDRAAQQAIYEGLLQDKQIECVYRARVNQGEDKTYILNPLALVQKGAVIYLICTRHDKTEVQTFALHRFKSAKVLESRALHPVNFDIDHYIDSGALGFRVDYNQPTESIQLTLTMTEQTAKTFYESQLSKDQTITPIEENIVEVTATVPFTSQLVWWLRSFGKKLLHIEPVQVHNAVREIEPDSK | not soluble
21 | KVSKGLILYPGAKVEIESYAPLARKIAESGYEVVIVKMPLNLAILGTNKAQKVMDSYNNIEHWVIGGHSLGGVAASNFARDNKLIEGVVFLASYPMGDELKELGKKVISIWGSKDGVVNFKSLVESKQKLPDDTTYVEIEGGNHAQFGDYGKQKGDNDAIISQEKQLNITANSIIKFLKNIS | not soluble
22 | MGHHHHHHSHMNKHQKPVLTGQRFKTRKRDEKEKFEPTVFRDTLVQGLNEAGDDLEAVAKFLDSTGSRLDYRRYADTLFDILVAGSMLAPGGTRIDDGDKTKMTNHCVFSANEDHETIRNYAQVFNKLIRRYKYLEKAFEDEMKKLLLFLKAFSETEQTKLAMLSGILLGNGTLPATILTSLFTDSLVKEGNEAPVFSPVRQQKKNKVTDS | not soluble

Source: the DeepSol protein solubility set
